US20130078718A1, “CONVERSION OF VASCULAR ENDOTHELIAL CELLS INTO MULTIPOTENT STEM-LIKE CELLS” (PRESIDENT AND FELLOWS OF HARVARD COLLEGE, priority 2010, published 2013)

Experiments:
ALK2 = target: T1, ALK2 (Homo sapiens, UniProt Q04771); assay: ALK2 phosphorylation: immunoprecipitation with ALK2 antibodies, phospho-tyrosine immunoblotting; format: cell-based; settings: 10 ng/mL, 15 minutes
T1 construct: Phosphorylation of this receptor was therefore examined in cell lysates; endogenous in cells; host or cells: primary HUVEC and HCMEC
T1 sequence (Q04771 21-509): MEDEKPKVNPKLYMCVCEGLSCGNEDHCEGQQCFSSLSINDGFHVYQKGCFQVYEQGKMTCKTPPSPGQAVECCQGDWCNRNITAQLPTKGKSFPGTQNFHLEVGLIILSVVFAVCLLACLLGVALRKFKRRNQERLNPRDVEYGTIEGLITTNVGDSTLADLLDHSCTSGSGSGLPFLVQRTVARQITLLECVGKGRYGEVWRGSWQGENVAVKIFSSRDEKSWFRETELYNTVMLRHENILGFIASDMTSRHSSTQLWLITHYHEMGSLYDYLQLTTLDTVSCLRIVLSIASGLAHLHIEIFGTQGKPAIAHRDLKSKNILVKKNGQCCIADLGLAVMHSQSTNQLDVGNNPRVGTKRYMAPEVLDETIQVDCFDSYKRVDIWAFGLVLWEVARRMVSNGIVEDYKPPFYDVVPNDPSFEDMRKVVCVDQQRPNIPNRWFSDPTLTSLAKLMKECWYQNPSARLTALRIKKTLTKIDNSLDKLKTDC
Method: Human umbilical vein endothelial cells (HUVEC) and human cutaneous microvascular endothelial cells (HCMEC) were provided by J. Bischoff (Children's Hospital Boston) and isolated as previously described^35. […] Cells were grown in culture using EGM-2 medium (Cambrex), containing 10% FBS and 1% Penicillin/Streptomycin, followed by human endothelial serum free medium (Gibco) 24 hours prior to all experimental conditions. Bone marrow derived mesenchymal stem cells (ScienCell Research Laboratories) were grown in mesenchymal stem cell medium (ScienCell Research Laboratories). Human corneal fibroblasts, from a stock initially provided by E. Hay (Harvard Medical School), were grown in RPMI medium, containing 10% FBS and 1% Penicillin/Streptomycin. […]
Immunoassays were performed using the following antibodies at concentrations (and using protocols) recommended by the respective manufacturers: FSP-1 (H00006275-M01; Stressgen), ALK2 (sc-5671), Phospho-tyrosine (sc-7020), VE-cadherin (sc-6458), TIE2 (sc-324, sc-9026), STRO-1 (sc-47733), CD44 (sc-71220), CD90 (sc-9163), Osteocalcin (sc-74495, sc-23790), SOX9 (sc-20095), COL2A1 (sc-59958, sc-52658), PPARγ2 (sc-22022; Santa Cruz Biotechnology), vWF (ab68545; Abcam); His (A00174; GenScript); α-SMA (A5228), β-actin (A1978; Sigma-Aldrich). […] Images were acquired using a Nikon 80i fluorescence microscope. […]

[1] = test system: human cutaneous microvascular endothelial cells (HCMEC); assay: Differentiation into myocytes, cardiomyocytes and neurons (immunoblotting); format: cell-based; settings: 10 ng/ml, 48 hours, then myogenic, cardiomyogenic or neurogenic medium 14 days
Method: Cardiomyogenic medium was purchased from Millipore Inc., (SCM-102).
Myogenic medium consisted of human endothelial serum-free medium supplemented with 5% horse serum, 0.1 μM dexamethasone, and 50 μM hydrocortisone (previously described by Gang et al, 2004).
Neurogenic medium consisted human endothelial serum-free medium supplemented with 100 ng/ml bFGF (previously described by Jiang et al., 2002). Endothelial cells converted into mesenchymal stem-like cells by treatment with 10 ng/ml TGF-β2 for 48 hours were plated on fibronectin-coated polystyrene wells in the neurogenic medium.

Row | Substance | ALK2 receptor phosphorylation (phospho-tyrosine) (ALK2) | expression of MyoD1, cardiac troponin I or neurofilament-L (immunoblotting) [1]
1 | BMP4: Recombinant BMP4 protein (R&D Systems), ALK2 activating ligand, used at 10 ng/mL | induced receptor phosphorylation | –
2 | TGF-β2: Recombinant TGF-β2 protein (R&D Systems), ALK2 activating ligand, used at 10 ng/mL | induced receptor phosphorylation | did express these markers
